Results on three molecules are retold here after paper PMC8611064, “Structure of the class C orphan GPCR GPR158 in complex with RGS7-Gβ5” (Nature Communications, 2021).

In series [1] the target is GPR158 (residues 1–863) (human) (UniProt Q5T848). The experiment in a line: cryo-EM structure; GPR158 (1-863), RGS7-Flag and Gβ5 co-expressed, co-purified by anti-Flag resin and Superose 6 in LMNG/CHS, treated with 0.1% OG; 2:1:1 and 2:2:2 complexes sorted from one sample.
The target of another series is apo GPR158 (human) (UniProt Q5T848). The experiment in a line: cryo-EM structure; apo GPR158 in 20 mM HEPES pH 7.5, 200 mM NaCl, 0.01% LMNG, 0.001% CHS, 5 mM EDTA, with 0.1% OG added; 12.7 mg/ml.
Series [2] concerns the molecule itself. The experiment in a line: cryo-EM structure; GPR158 (1-863), RGS7-Flag and Gβ5 co-expressed, co-purified by anti-Flag resin and Superose 6 in LMNG/CHS, treated with 0.1% OG; 2:1:1 and 2:2:2 complexes sorted from one sample.

Turning to “RGS7–Gβ5 heterodimer (from UniProt P49802 1-495; O14775 1-395) (complex)”, in series [1], the stoichiometry N (RGS7–Gβ5 heterodimer per GPR158 dimer) amounted to 1 and the stoichiometry N (RGS7–Gβ5 heterodimers per GPR158 dimer) was 2.

For the molecule “apo GPR158 (from UniProt Q5T848 24-710) (receptor)”, in the series with apo GPR158 (human), the stoichiometry N (usually a count of units in the complex or per binding partner) was found to be 2 protomers.

B1: GPR158 (residues 1–863) (receptor, human, UniProt Q5T848 24-863, looked up)
chain: ASRDPQGRPDSPRERTPKGKPHAQQPGRASASDSSAPWSRSTDGTILAQKLAEEVPMDVASYLYTGDSHQLKRANCSGRYELAGLPGKWPALASAHPSLHRALDTLTHATNFLNVMLQSNKSREQNLQDDLDWYQALVWSLLEGEPSISRAAITFSTDSLSAPAPQVFLQATREESRILLQDLSSSAPHLANATLETEWFHGLRRKWRPHLHRRGPNQGPRGLGHSWRRKDGLGGDKSHFKWSPPYLECENGSYKPGWLVTLSSAIYGLQPNLVPEFRGVMKVDINLQKVDIDQCSSDGWFSGTHKCHLNNSECMPIKGLGFVLGAYECICKAGFYHPGVLPVNNFRRRGPDQHISGSTKDVSEEAYVCLPCREGCPFCADDSPCFVQEDKYLRLAIISFQALCMLLDFVSMLVVYHFRKAKSIRASGLILLETILFGSLLLYFPVVILYFEPSTFRCILLRWARLLGFATVYGTVTLKLHRVLKVFLSRTAQRIPYMTGGRVMRMLAVILLVVFWFLIGWTSSVCQNLEKQISLIGQGKTSDHLIFNMCLIDRWDYMTAVAEFLFLLWGVYLCYAVRTVPSAFHEPRYMAVAVHNELIISAIFHTIRFVLASRLQSDWMLMLYFAHTHLTVTVTIGLLLIPKFSHSSNNPRDDIATEAYEDELDMGRSGSYLNSSINSAWSEHSLDPEDIRDELKKLYAQLEIYKRKKMITNNPHLQKKRCSKKGLGRSIMRRITEIPETVSRQCSKEDKEGADHGTAKGTALIRKNPPESSGNTGKSKEETLKNRVFSLKKSHSTYDHVRDQTEESSSLPTESQEEETTENSTLESLSGKKLTQKLKE
notes: signal peptide in the construct; human GPR158 residues 1-863, followed by a PreScission protease site, GFP and a Twin-Strep II tag; No PreScission cleavage is told for the purification of the complex
In the case of B1, the “stoichiometry N” value in series [2] came out at 2 protomers.
